The results in this text go back to the supplement of paper PMC12764529.

± gives the half width of the 95% confidence interval.

Series [1] in a line: folding stability dG unfold from chymotrypsin proteolysis; higher = more stable. Put shortly:
(§1)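 K50 was inferred by Bayesian fitting of sequencing counts obtained after protease digestion of designed mini-proteins. Unfolding free energy was derived by comparison with a sequence-predicted unfolded-state K50 and a shared folded-state K50, for each protease or both combined. The mini-proteins were under 80 residues, had no cysteine, were carried in a PA-tagged cDNA display construct, and were kept only if AlphaFold2 dimer inter-PAE exceeded 15.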

The nature of series [2]: folding stability dG unfold from trypsin proteolysis; higher = more stable. Put shortly:
as §1

Series [3] can be described thus: folding stability dG unfold (combined trypsin and chymotrypsin); higher = more stable. Put shortly: as §1

“SAGGSMTISLDETIDVPEDVGVTFTFADDTVATAYFDPSEGKVRVVVYDPNKPGTLLGEFTLPVLPSAGGSA [r2_266_TrMRF]”: the entries for the “folding stability dG unfold” value in series [1], in series [2] and in series [3] were 1.41 ± 0.07 kcal/mol, 0.976 ± 0.017 kcal/mol and 1.29 ± 0.11 kcal/mol, respectively.
The corresponding values for “SAGGSMTIVVETPEEVEKAIKALEDELKKKGIKKGDKIKKIKVEKNENGKLTVTIEVDGKKIKIEVSAGGSA [r2_120_TrROS_Hall]” are 2.02 ± 0.25 kcal/mol, 0.37 ± 0.15 kcal/mol and 1.63 ± 0.3 kcal/mol.
“SAGGSMTLEELKNMTVEELRELLGEDAEVTVDEETGTITIRVPGKEVTIEVDEETGEVKIVEVKPVSAGGSA [r2_470_TrROS_Hall]”: the “folding stability dG unfold” value in series [1] is 2.27 ± 0.13 kcal/mol; in series [2] it was 3.31 ± 0.24 kcal/mol; in series [3], 2.89 ± 0.26 kcal/mol.
The corresponding values for “SAGGSMTTPPTGEVQVFIDRKTDKWTIRIVDPNAPPTTEEVESEEEAEKVIAELEAKGYKVDTVEPLPSAGG [r13_727_JUSTAS]” are 1.14 ± 0.5 kcal/mol, 0.658 ± 0.16 kcal/mol and 0.913 ± 0.29 kcal/mol.
On to “SAGGSMVIPTKVSSLEEAKQVAEEILKKLGRPLTLDDVSFDPEKFKAELKPDTPVVVKVKDPSGVTLGASAG [r5_503_JUSTAS]”, for which the “folding stability dG unfold” value in series [1] came out at 0.458 ± 0.15 kcal/mol; in series [2], 0.457 ± 0.032 kcal/mol; in series [3] it was 0.409 ± 0.16 kcal/mol.
Take “SAGGSMVKVEVHYDPERDLVLVTVEAPDDPELVDEFVERMKKLGAKRVEVFRFPEDGKVRILVEIGSAGGSA [r2_358_TrMRF]”: the “folding stability dG unfold” value stood at 4.68 ± 0.081 kcal/mol in series [1], 3.08 ± 0.11 kcal/mol in series [2] and 4.36 ± 0.1 kcal/mol in series [3].
Turning to “SAGGSNVEVERHPDGHMTFTFPDEDGKDVKITIHMHPDGMYMIRVPGNNQPIYFPPGQSIEDLLKLSAGGSA [r2_338_TrROS]”, the “folding stability dG unfold” value in series [1] was 2.88 ± 0.032 kcal/mol; in series [2], 2.2 ± 0.069 kcal/mol; in series [3], 2.63 ± 0.098 kcal/mol.
For “SAGGSPDEAVPLPVPAKITLPGGAEFTVEEAVVLPNGEVLVKATLISPYPDPREAPFVVPLELLDISSAGGS [r16_498_TrMRF]”, the “folding stability dG unfold” value was 0.395 ± 0.03 kcal/mol in series [1], -0.338 ± 0.054 kcal/mol in series [2] and 0.235 ± 0.066 kcal/mol in series [3].
For the sequence “SAGGSPKAREERFEKTLPDGTVVPVTLTRLPDGTVRVETTTYTYNSPEPVASTSTTTLPEAEVAAALSAGGS [r16_470_JUSTAS]”, the “folding stability dG unfold” value in series [1] was determined as 0.684 ± 0.11 kcal/mol; in series [2] it was 0.631 ± 0.099 kcal/mol; in series [3], 0.686 ± 0.086 kcal/mol.
Consider “SAGGSPKPVPVTITSVTSTSVEVYLPSTGATFTFNLNEEKTLTLPDGSKIYFTFNSDGSVTATVIEYGSAGG [r13_352_TrMRF]”, for which the “folding stability dG unfold” value was 4.88 ± 0.051 kcal/mol in series [1], 5.03 ± 0.73 kcal/mol in series [2] and 4.83 ± 0.12 kcal/mol in series [3].
Take “SAGGSPLVLTSEVEKKFENSPDKTVEKYKIKVTVYDPKTGKKLKEIELEKTVEKGGNEKIEEPIILSAGGSA [r2_271_JUSTAS]”: the results for the “folding stability dG unfold” value in series [1], in series [2] and in series [3] were 0.487 ± 0.21 kcal/mol, 0.146 ± 0.084 kcal/mol and 0.419 ± 0.16 kcal/mol, respectively.
As to “SAGGSPNYKINVEVEEYEPNPDNGKPYYRARIKIEWYNPENGREQTREIDFWMSPDKAEKFLKDILSAGGSA [r2_357_TrROS]”, the “folding stability dG unfold” value was 2.56 ± 0.13 kcal/mol in series [1], 1.89 ± 0.059 kcal/mol in series [2] and 2.22 ± 0.17 kcal/mol in series [3].
Regarding “SAGGSPPFRIKIDEIEILPNGIIQVTFKIDNGWPMTILIQMDPDGKVTIEIQFPGNGQPFEFELPISAGGSA [r2_361_TrROS]”, the “folding stability dG unfold” value in series [1] turned out to be 3.52 ± 0.07 kcal/mol; in series [2], 2.56 ± 0.14 kcal/mol; in series [3] it was 3.27 ± 0.23 kcal/mol.
Turning to “SAGGSPPLPLKITKITDTRYERNPDGQGWVKIEIRLPENGKPITIPVQADSPEQAEYAVKEALKKFSAGGSA [r2_248_TrROS]”, the “folding stability dG unfold” value in series [1] was -0.424 ± 0.56 kcal/mol; in series [2] it was -0.315 ± 0.16 kcal/mol; in series [3], -0.31 ± 0.36 kcal/mol.
For the sequence “SAGGSPSMSPEELAKREKERILEELRKKGGSKTIPMKVEITVPDEKGNTTKYNIEINITVEVPEDKLSAGGS [r16_550_JUSTAS]”, the “folding stability dG unfold” value in series [1] came to 1.31 ± 0.1 kcal/mol; in series [2], 0.622 ± 0.082 kcal/mol; in series [3], 0.974 ± 0.15 kcal/mol.
For the sequence “SAGGSPVLKVEVFELEEDKLLLKIYFPKEEAGLTPEQKEALAKAIQELFPNTKAFTTDEELYIVVDSAGGSA [r2_256_TrMRF]”, the figures for the “folding stability dG unfold” value in series [1], in series [2] and in series [3] were 2.38 ± 0.15 kcal/mol, 2.06 ± 0.075 kcal/mol and 2.37 ± 0.12 kcal/mol, respectively.
For “SAGGSPVVLTKSPDGLLYVVTLTDPANSLDRVKAKVTAYDPNKPVPLGELTIELDPKTGKAVSALSSAGGSA [r2_324_JUSTAS]”, the “folding stability dG unfold” value in series [1] is 0.488 ± 0.089 kcal/mol; in series [2] it was -0.543 ± 0.097 kcal/mol; in series [3] it was 0.21 ± 0.093 kcal/mol.
Regarding “SAGGSPWIFVIKIEWEPRDPDGKKKKYEYSIVITATPNQLDELLEQIKKAPPGYKIKEVKIEVFPFSAGGSA [r2_75_TrROS]”, the “folding stability dG unfold” value stood at 4.21 ± 0.086 kcal/mol in series [1], 2.65 ± 0.18 kcal/mol in series [2] and 3.82 ± 0.21 kcal/mol in series [3].
